Assay results from patent US20130129739A1.

Target: human prolactin receptor (PRLR) on cells (human) (UniProt P16471)
Assay: cell-based or functional assay

Sequence of human prolactin receptor (PRLR) on cells (human) (P16471 25-622): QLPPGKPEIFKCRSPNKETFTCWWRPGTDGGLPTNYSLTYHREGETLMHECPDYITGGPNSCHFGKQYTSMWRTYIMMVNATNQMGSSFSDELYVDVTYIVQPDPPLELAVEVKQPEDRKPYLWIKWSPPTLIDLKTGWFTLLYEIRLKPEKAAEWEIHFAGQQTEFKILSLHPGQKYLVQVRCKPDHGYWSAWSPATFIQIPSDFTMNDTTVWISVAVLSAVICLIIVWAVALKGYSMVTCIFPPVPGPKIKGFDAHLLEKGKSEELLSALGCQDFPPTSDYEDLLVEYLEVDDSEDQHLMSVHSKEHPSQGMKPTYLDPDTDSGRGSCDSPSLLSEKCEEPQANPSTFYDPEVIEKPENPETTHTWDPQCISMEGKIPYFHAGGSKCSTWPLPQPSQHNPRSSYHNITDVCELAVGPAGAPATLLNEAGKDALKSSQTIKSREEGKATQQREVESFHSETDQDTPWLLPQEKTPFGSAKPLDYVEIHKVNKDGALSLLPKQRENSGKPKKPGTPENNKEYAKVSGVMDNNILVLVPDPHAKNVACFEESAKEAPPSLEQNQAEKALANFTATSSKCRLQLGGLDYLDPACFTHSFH

Inhibition of phosphorylation of ERK1/2 in % at 7.5 µg/ml (ELISA, prolactin-treated T47D lysates): 9%
Inhibition of phosphorylation of PRLR in % at 7.5 µg/ml (ELISA, prolactin-treated T47D lysates): 2%
Inhibition of phosphorylation of STAT5 in % at 7.5 µg/ml (ELISA, prolactin-treated T47D lysates): 0%
Substance: Negative control (Table 8)
